Measurements from the supplement of paper PMC7877785.
± gives the uncertainty stated by the source.

Assay: self-splicing fitness, log relative to wild type (ln ratio); higher = more splicing; Tetrahymena group I intron in knt gene, E. coli kanamycin selection, DiMSum; sequences stand for … in CUCUCU…GGAGGGAAAAGUUAUCAGGCAUGCACCUGGUAGCUAGUCUUUAAACCAAUAGAUUGCAUCGGUUUAAAAGGCAAGACCGUCAAAUUGCGGGAAAGGGGUCAACAGCCGUUCAGUACCAAGUCUCAGGGGAAACUUUGAGAUGGCCUUGCAAAGGGUAUGGUAAUAAGCUGACGGACAUGGUCCUAACCACGCAGCCAAGUCCUAAGUCAACAGAUCUUCUGUUGAUAUGGAUGCAGUUCACAGACUAAAUGUCGGUCGGGGAAGAUGUAUUCUUCUCAUAAGAUAUAGUCGGACCUCUCCUUAAUGGGAGCUAGCGGAUGAAGUGAUGCAACACUGGAGCCGCUGGGAACUAAUUUGUAUGCGAAAGUAUAUUGAUUAGUUUUGGAGUACUCGUGGUCG
Method in brief: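 DiMSum derived fitness as the error-weighted combination of fold changes across replicates, kanamycin versus no kanamycin, normalised to wild type. E. coli BL21(DE3) held the library, which randomised all eight P1ex-region intron nucleotides within the knt kanamycin-resistance gene on pET-22b(+). Six replicate transformations grew overnight at 37°C or 30°C on LB agar with or without 25 μg/mL kanamycin, also containing 100 μg/mL carbenicillin, 50 μM IPTG and 0.2% rhamnose, and pooled colonies were amplicon-sequenced on an Illumina HiSeq 2500.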

Sequence	self-splicing fitness (ln) (30 °C)	self-splicing fitness (ln) (37 °C)
AUCAAGCAAUAUUACGGGGC	-3.13 ± 0.24	-3.01 ± 0.26
AUCAAGCAAUAUUACGGGGG	-3.79 ± 0.22	-2.64 ± 0.15
AUCAAGCAAUAUUACGGGUU	-3.44 ± 0.14	-1.22 ± 0.11
AUCAAGCAAUAUUACGUAAC	-2.98 ± 0.16	-2.18 ± 0.19
AUCAAGCAAUAUUACGUAUU	-2.7 ± 0.09	-1.5 ± 0.11
AUCAAGCAAUAUUACGUCGC	-4 ± 0.2	-2.65 ± 0.11
AUCAAGCAAUAUUACGUCUU	-1.86 ± 0.072	-0.301 ± 0.073
AUCAAGCAAUAUUACGUGAC	-2.04 ± 0.12	-1.07 ± 0.11
AUCAAGCAAUAUUACGUGAG	-0.619 ± 0.046	0.349 ± 0.073
AUCAAGCAAUAUUACGUGUU	-3.23 ± 0.11	-1.58 ± 0.097
AUCAAGCAAUAUUACGUUUU	-1.6 ± 0.097	-0.791 ± 0.12
AUCCAGCAAUAUUACGAAAG	-3.77 ± 0.18	-2.76 ± 0.21
AUCCAGCAAUAUUACGACCA	-0.725 ± 0.15	-0.224 ± 0.17
AUCCAGCAAUAUUACGCAAG	-2.75 ± 0.18	0.207 ± 0.14
AUCCAGCAAUAUUACGCACC	-1.19 ± 0.13	0.657 ± 0.17
AUCCAGCAAUAUUACGCGAC	-2.56 ± 0.14	-1.86 ± 0.18
AUCCAGCAAUAUUACGCGGA	-3.7 ± 0.25	-2.5 ± 0.17
AUCCAGCAAUAUUACGCUCG	-1.75 ± 0.26	-0.356 ± 0.22
AUCCAGCAAUAUUACGCUUA	-0.592 ± 0.064	0.389 ± 0.094

Sequence	self-splicing fitness (ln) (30 °C)	self-splicing fitness (ln) (37 °C)
AUCCAGCAAUAUUACGCUUG	-3.27 ± 0.2	-2.7 ± 0.25
AUCCAGCAAUAUUACGGACA	-0.527 ± 0.099	-0.096 ± 0.11
AUCCAGCAAUAUUACGGACC	-1.71 ± 0.13	0.282 ± 0.13
AUCCAGCAAUAUUACGGAGC	-3.09 ± 0.21	-2.2 ± 0.24
AUCCAGCAAUAUUACGGCCA	-0.362 ± 0.071	-0.298 ± 0.084
AUCCAGCAAUAUUACGGCGG	-1.04 ± 0.09	-0.327 ± 0.11
AUCCAGCAAUAUUACGGCGU	-0.0553 ± 0.058	0.269 ± 0.07
AUCCAGCAAUAUUACGGGAG	-1.63 ± 0.066	-1.32 ± 0.074
AUCCAGCAAUAUUACGGGGC	-2.89 ± 0.14	-2.82 ± 0.26
AUCCAGCAAUAUUACGGUCU	-0.68 ± 0.053	-0.109 ± 0.074
AUCCAGCAAUAUUACGUAAC	-1.82 ± 0.13	-1.91 ± 0.22
AUCCAGCAAUAUUACGUAGA	-0.783 ± 0.073	-0.0552 ± 0.12
AUCCAGCAAUAUUACGUCAG	-2.99 ± 0.11	-2.15 ± 0.12
AUCCAGCAAUAUUACGUCCC	-0.894 ± 0.22	-1.1 ± 0.28
AUCCAGCAAUAUUACGUGCA	-1.63 ± 0.091	-0.196 ± 0.091
AUCCAGCAAUAUUACGUGCC	-3.16 ± 0.21	-1.09 ± 0.16
AUCCAGCAAUAUUACGUGCG	-1.65 ± 0.078	-0.875 ± 0.076
AUCCAGCAAUAUUACGUGUG	-1.79 ± 0.057	-0.983 ± 0.06
